± gives the uncertainty stated by the source.

This data set can be described thus: abundance fitness (aPCA) (normalised: wild type 0, dead -1); higher = more abundant; growth selection in yeast, the domain comes from the species named. The note with it: Homo sapiens.
“E3 ubiquitin-protein ligase NEDD4-like E201Q, Q96PU5” yielded an abundance fitness of -0.228 ± 0.12.

Turning to “E3 ubiquitin-protein ligase NEDD4-like E201R, Q96PU5”, the abundance fitness is -0.209 ± 0.057.

“E3 ubiquitin-protein ligase NEDD4-like E201S, Q96PU5” registered an abundance fitness of -0.124 ± 0.061.

“E3 ubiquitin-protein ligase NEDD4-like E201T, Q96PU5” displayed an abundance fitness of -0.098 ± 0.1.

Turning to “E3 ubiquitin-protein ligase NEDD4-like E201V, Q96PU5”, the abundance fitness is -0.14 ± 0.052.

“E3 ubiquitin-protein ligase NEDD4-like E201W, Q96PU5” had an abundance fitness of -0.423 ± 0.065.

Consider “E3 ubiquitin-protein ligase NEDD4-like E201Y, Q96PU5”, for which the abundance fitness was -0.278 ± 0.056.

Consider “E3 ubiquitin-protein ligase NEDD4-like E232A, Q96PU5”, for which the abundance fitness was -0.173 ± 0.11.

In turn, “E3 ubiquitin-protein ligase NEDD4-like E232D, Q96PU5” gave an abundance fitness of -0.354 ± 0.12.

“E3 ubiquitin-protein ligase NEDD4-like E232G, Q96PU5” returned an abundance fitness of -0.287 ± 0.12.

In the case of “E3 ubiquitin-protein ligase NEDD4-like E232H, Q96PU5”, the abundance fitness is -0.574 ± 0.18.

With “E3 ubiquitin-protein ligase NEDD4-like E232I, Q96PU5”, the abundance fitness is -0.5 ± 0.31.

“E3 ubiquitin-protein ligase NEDD4-like E232K, Q96PU5”: the abundance fitness was -1.37 ± 0.43.

As to “E3 ubiquitin-protein ligase NEDD4-like E232L, Q96PU5”, the abundance fitness was -0.158 ± 0.19.

Consider “E3 ubiquitin-protein ligase NEDD4-like E232M, Q96PU5”, for which the abundance fitness is -0.402 ± 0.12.

In turn, “E3 ubiquitin-protein ligase NEDD4-like E232N, Q96PU5” gave an abundance fitness of 0.022 ± 0.072.

Substance “E3 ubiquitin-protein ligase NEDD4-like E232P, Q96PU5” yielded an abundance fitness of 0.216 ± 0.17.

“E3 ubiquitin-protein ligase NEDD4-like E232R, Q96PU5” displayed an abundance fitness of -0.999 ± 0.24.

Consider “E3 ubiquitin-protein ligase NEDD4-like E232V, Q96PU5”, for which the abundance fitness was -0.901 ± 0.18.

Substance “E3 ubiquitin-protein ligase NEDD4-like E232W, Q96PU5” yielded an abundance fitness of -0.98 ± 0.33.

The substance “E3 ubiquitin-protein ligase NEDD4-like E232Y, Q96PU5” came in with an abundance fitness of -0.413 ± 0.27.

“E3 ubiquitin-protein ligase NEDD4-like G198A, Q96PU5” returned an abundance fitness of -0.032 ± 0.069.

Regarding “E3 ubiquitin-protein ligase NEDD4-like G198C, Q96PU5”, the abundance fitness is -0.171 ± 0.092.

For “E3 ubiquitin-protein ligase NEDD4-like G198E, Q96PU5”, the abundance fitness was -0.691 ± 0.092.

On to “E3 ubiquitin-protein ligase NEDD4-like G198F, Q96PU5”, for which the abundance fitness was -0.15 ± 0.086.

The substance “E3 ubiquitin-protein ligase NEDD4-like G198H, Q96PU5” had an abundance fitness of -0.197 ± 0.11.

With “E3 ubiquitin-protein ligase NEDD4-like G198I, Q96PU5”, the abundance fitness was -0.765 ± 0.15.

“E3 ubiquitin-protein ligase NEDD4-like G198K, Q96PU5” registered an abundance fitness of -0.103 ± 0.087.

“E3 ubiquitin-protein ligase NEDD4-like G198L, Q96PU5” gave an abundance fitness of -0.209 ± 0.054.

In the case of “E3 ubiquitin-protein ligase NEDD4-like G198M, Q96PU5”, the abundance fitness is -0.058 ± 0.092.

In the case of “E3 ubiquitin-protein ligase NEDD4-like G198N, Q96PU5”, the abundance fitness was -0.095 ± 0.11.

Substance “E3 ubiquitin-protein ligase NEDD4-like G198P, Q96PU5” displayed an abundance fitness of -0.077 ± 0.074.

“E3 ubiquitin-protein ligase NEDD4-like G198Q, Q96PU5” showed an abundance fitness of -0.075 ± 0.06.

In turn, “E3 ubiquitin-protein ligase NEDD4-like G198R, Q96PU5” gave an abundance fitness of -0.238 ± 0.06.

Substance “E3 ubiquitin-protein ligase NEDD4-like G198S, Q96PU5” gave an abundance fitness of -0.139 ± 0.057.

For “E3 ubiquitin-protein ligase NEDD4-like G198T, Q96PU5”, the abundance fitness was -0.239 ± 0.075.

Take “E3 ubiquitin-protein ligase NEDD4-like G198V, Q96PU5”: the abundance fitness is -0.291 ± 0.062.

Take “E3 ubiquitin-protein ligase NEDD4-like G198W, Q96PU5”: the abundance fitness was -0.324 ± 0.095.

In the case of “E3 ubiquitin-protein ligase NEDD4-like G198Y, Q96PU5”, the abundance fitness is -0.049 ± 0.069.

For “E3 ubiquitin-protein ligase NEDD4-like G207A, Q96PU5”, the abundance fitness is -0.252 ± 0.052.

As for “E3 ubiquitin-protein ligase NEDD4-like G207D, Q96PU5”, the abundance fitness is -0.162 ± 0.056.

As for “E3 ubiquitin-protein ligase NEDD4-like G207E, Q96PU5”, the abundance fitness was -0.312 ± 0.066.

“E3 ubiquitin-protein ligase NEDD4-like G207F, Q96PU5” had an abundance fitness of -0.423 ± 0.056.

“E3 ubiquitin-protein ligase NEDD4-like G207H, Q96PU5” displayed an abundance fitness of -0.171 ± 0.066.

Substance “E3 ubiquitin-protein ligase NEDD4-like G207I, Q96PU5” registered an abundance fitness of -0.96 ± 0.061.

Substance “E3 ubiquitin-protein ligase NEDD4-like G207K, Q96PU5” gave an abundance fitness of -0.128 ± 0.063.

Regarding “E3 ubiquitin-protein ligase NEDD4-like G207L, Q96PU5”, the abundance fitness was -0.432 ± 0.052.

“E3 ubiquitin-protein ligase NEDD4-like G207M, Q96PU5”: the abundance fitness is -0.27 ± 0.067.

In the case of “E3 ubiquitin-protein ligase NEDD4-like G207N, Q96PU5”, the abundance fitness was found to be 0.042 ± 0.067.

“E3 ubiquitin-protein ligase NEDD4-like G207P, Q96PU5” had an abundance fitness of -0.756 ± 0.053.

“E3 ubiquitin-protein ligase NEDD4-like G207Q, Q96PU5” gave an abundance fitness of -0.192 ± 0.069.

On to “E3 ubiquitin-protein ligase NEDD4-like G207R, Q96PU5”, for which the abundance fitness is -0.252 ± 0.051.

“E3 ubiquitin-protein ligase NEDD4-like G207S, Q96PU5”: the abundance fitness is -0.182 ± 0.048.

Substance “E3 ubiquitin-protein ligase NEDD4-like G207T, Q96PU5” yielded an abundance fitness of -0.419 ± 0.055.

In the case of “E3 ubiquitin-protein ligase NEDD4-like G207V, Q96PU5”, the abundance fitness was -0.803 ± 0.056.

With “E3 ubiquitin-protein ligase NEDD4-like G207W, Q96PU5”, the abundance fitness is -0.738 ± 0.077.

“E3 ubiquitin-protein ligase NEDD4-like G207Y, Q96PU5” had an abundance fitness of -0.397 ± 0.06.

For “E3 ubiquitin-protein ligase NEDD4-like H186A, Q96PU5”, the abundance fitness is -0.362 ± 0.069.

The substance “E3 ubiquitin-protein ligase NEDD4-like H186C, Q96PU5” registered an abundance fitness of -0.282 ± 0.093.

“E3 ubiquitin-protein ligase NEDD4-like H186D, Q96PU5” registered an abundance fitness of 0.168 ± 0.082.

“E3 ubiquitin-protein ligase NEDD4-like H186E, Q96PU5” came in with an abundance fitness of -1.69 ± 0.14.

Consider “E3 ubiquitin-protein ligase NEDD4-like H186F, Q96PU5”, for which the abundance fitness is -0.111 ± 0.12.

In turn, “E3 ubiquitin-protein ligase NEDD4-like H186G, Q96PU5” registered an abundance fitness of -0.461 ± 0.067.

In turn, “E3 ubiquitin-protein ligase NEDD4-like H186I, Q96PU5” showed an abundance fitness of 0.086 ± 0.12.

For “E3 ubiquitin-protein ligase NEDD4-like H186K, Q96PU5”, the abundance fitness is -0.222 ± 0.079.

As to “E3 ubiquitin-protein ligase NEDD4-like H186L, Q96PU5”, the abundance fitness is -0.185 ± 0.074.

As to “E3 ubiquitin-protein ligase NEDD4-like H186M, Q96PU5”, the abundance fitness is -0.349 ± 0.1.

Take “E3 ubiquitin-protein ligase NEDD4-like H186N, Q96PU5”: the abundance fitness is -0.123 ± 0.13.

In turn, “E3 ubiquitin-protein ligase NEDD4-like H186P, Q96PU5” yielded an abundance fitness of -0.292 ± 0.081.

Take “E3 ubiquitin-protein ligase NEDD4-like H186Q, Q96PU5”: the abundance fitness was -0.511 ± 0.1.

On to “E3 ubiquitin-protein ligase NEDD4-like H186R, Q96PU5”, for which the abundance fitness is -0.59 ± 0.061.

As to “E3 ubiquitin-protein ligase NEDD4-like H186S, Q96PU5”, the abundance fitness was -0.185 ± 0.076.

Substance “E3 ubiquitin-protein ligase NEDD4-like H186T, Q96PU5” gave an abundance fitness of -0.288 ± 0.11.

Substance “E3 ubiquitin-protein ligase NEDD4-like H186V, Q96PU5” came in with an abundance fitness of -0.045 ± 0.058.

For the substance “E3 ubiquitin-protein ligase NEDD4-like H186W, Q96PU5”, the abundance fitness was -1.24 ± 0.064.

In turn, “E3 ubiquitin-protein ligase NEDD4-like H186Y, Q96PU5” returned an abundance fitness of -0.095 ± 0.12.

In the case of “E3 ubiquitin-protein ligase NEDD4-like H214F, Q96PU5”, the abundance fitness was -0.07 ± 0.1.

“E3 ubiquitin-protein ligase NEDD4-like H214I, Q96PU5” displayed an abundance fitness of -0.005 ± 0.078.

For “E3 ubiquitin-protein ligase NEDD4-like H214K, Q96PU5”, the abundance fitness was found to be 0.032 ± 0.081.

In turn, “E3 ubiquitin-protein ligase NEDD4-like H214L, Q96PU5” gave an abundance fitness of -0.05 ± 0.051.

In turn, “E3 ubiquitin-protein ligase NEDD4-like H214M, Q96PU5” yielded an abundance fitness of 0.011 ± 0.083.

With “E3 ubiquitin-protein ligase NEDD4-like H214N, Q96PU5”, the abundance fitness was -0.032 ± 0.11.

As to “E3 ubiquitin-protein ligase NEDD4-like H214P, Q96PU5”, the abundance fitness was -0.063 ± 0.077.

Substance “E3 ubiquitin-protein ligase NEDD4-like H214Q, Q96PU5” yielded an abundance fitness of -0.211 ± 0.089.

The record behind these values is the Human Domainome abundance scans (Beltran et al. 2025).
